Data on four molecules can be found in US10870874B2, “Binding fusion proteins, binding fusion protein-drug conjugates, XTEN-drug conjugates and methods of making and using same” (Amunix Pharmaceuticals, Inc., priority 2010, dated 2020).

A short description of data set [1]: Stability of XTEN_AE864-GFP incubated in monkey plasma. The note with it: 37° C., 7 days. It counts as in vitro ADME, cynomolgus monkey. The method, then:
(§1) FIG. 16A-FIG. 16C show an SDS-PAGE gel of samples from a stability study of the fusion protein of XTEN_AE864 fused to the N-terminus of GFP.
(§2) A fusion protein containing XTEN_AE864 fused to the N-terminus of GFP was incubated in monkey plasma and rat kidney lysate for up to 7 days at 37° C. Samples were withdrawn at time 0, Day 1 and Day 7 and analyzed by SDS PAGE followed by detection using Western analysis and detection with antibodies against GFP as shown in FIG. 16A-FIG. 16C. […] The in vivo stability of the fusion protein was tested in plasma samples wherein the GFP_AE864 was immunoprecipitated and analyzed by SDS PAGE as described above.

Data set [2] is described as follows: Stability of XTEN_AE864-GFP incubated in rat kidney lysate. It counts as in vitro ADME. As to conditions: 37° C., over 3 days. Here is the method:
as §1
Samples were withdrawn at time 0, Day 1 and Day 7 and analyzed by SDS PAGE followed by detection using Western analysis and detection with antibodies against GFP as shown in FIG. 16A-FIG. 16C. […] The in vivo stability of the fusion protein was tested in plasma samples wherein the GFP_AE864 was immunoprecipitated and analyzed by SDS PAGE as described above.

The nature of data set [3]: In vivo stability of GFP-XTEN in plasma samples after injection. Also noted: species or system cynomolgus monkeys. As to conditions: samples up to 7 days after injection. The method, then: as §1, §2
The target in another data set is human CD40 (Homo sapiens, UniProt P25942). Put plainly: CD40 binding ELISA with cleared lysates of aCD40-XTEN. As to conditions: from EC50 of lysate dilution and an estimate concentration of 10 μM in the lysate. The method, then: Two aCD40-XTEN constructs, AC384 and AC385, were expressed by growing a culture to saturation in 2×YT and then using this culture to inoculate a 500 ml flask of 2×YT. This second flask was grown to an OD600 of between 0.6 and 1.0 at 37° C., transferred to 26° C., and induced with 1 mM IPTG. The induction was left overnight and cell paste harvested by centrifugation the flowing morning. These pellets were stored as EP220 and EP221. Small samples were taken from the pellet, lysed using bugbuster, and clarified using a microcentrifuge. These cleared lysates were the serially diluted by a factor of three in PBST, for using in a binding ELISA. The ELISA was performed as follows: The plates were coated with either 100 ng/well of human CD40-Fc fusion for 1 hour at 37° C., blocked with 3% BSA in PBS for one hour at 37° C., bound by adding the AC384 or AC385 dilution series to the plate and incubating for one hour at room temperature, washed 3 times with PBST, detected with biotinylated anti-XTEN antibody for one hour at room temperature, washed three times with PBST, amplified with streptavidin-HRP for one hour at room temperature, washed three times with PBST, developed with TMB substrate and read at 405 nm using a plate reader. The ELISA values were plotted versus dilution of lysate plotted on a log scale and an EC50 value determined, with nearly identical results (FIG. 27).
Sequence of human CD40 (P25942 21-193 limits assumed): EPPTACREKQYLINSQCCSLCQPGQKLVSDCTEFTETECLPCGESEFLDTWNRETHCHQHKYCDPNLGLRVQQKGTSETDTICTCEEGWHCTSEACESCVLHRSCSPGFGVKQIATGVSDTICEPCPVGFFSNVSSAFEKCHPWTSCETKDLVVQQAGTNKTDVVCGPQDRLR

The target in another data set is T1, human IL6R (Homo sapiens, UniProt P08887).
T1 sequence (P08887 20-468): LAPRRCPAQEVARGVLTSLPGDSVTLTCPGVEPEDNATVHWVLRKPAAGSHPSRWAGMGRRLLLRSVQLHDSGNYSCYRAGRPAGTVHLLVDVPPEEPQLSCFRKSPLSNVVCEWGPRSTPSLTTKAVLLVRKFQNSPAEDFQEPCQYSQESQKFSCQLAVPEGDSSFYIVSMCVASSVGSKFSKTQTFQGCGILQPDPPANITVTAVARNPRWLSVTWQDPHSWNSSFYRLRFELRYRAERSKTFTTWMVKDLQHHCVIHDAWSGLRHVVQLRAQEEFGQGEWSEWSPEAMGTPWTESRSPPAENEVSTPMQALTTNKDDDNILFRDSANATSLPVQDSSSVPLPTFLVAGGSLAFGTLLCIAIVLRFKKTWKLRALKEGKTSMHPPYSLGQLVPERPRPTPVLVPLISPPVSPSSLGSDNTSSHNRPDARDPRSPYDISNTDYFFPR
The experiment in a line: IL6R binding ELISA of aIL6R-XTEN. As to conditions: 100 ng/well human IL6R. The method, then: E. coli from a single colony of AC342 was grown to saturation in 2×YT media. 10 mL of this saturated overnight culture was used to inoculate a 500 ml of 2×YT media and this culture was grown to an OD600 between 0.4 and 0.5 at 37° C., transferred to 26° C. and induced with 1 mM IPTG. The culture was then grown overnight (15-17 hours) and harvested by centrifugation at 10,000 rpm in a Sorvall SLA-3000 rotor. The pellets were stored until use at −80° C. Cell paste was resuspended in 25 ml of lysis buffer (20 mM sodium acetate, 50 mM sodium chloride, pH 4.5), lysed by sonication, and clarified by spinning at 10,000 rpm at 4° C. in a Sorvall SS34 rotor. The samples were further acidified by the addition of acetic acid. […] IL6R binding was assessed in an ELISA as follows: the plates were coated with either 100 ng/well of human IL6R for 1 hour at 37° C., blocked with 3% BSA in PBS for one hour at 37° C., bound by adding the AC342 dilution series to the plate and incubating for one hour at room temperature, washed 3 times with PBST, detected with biotinylated anti-XTEN antibody for one hour at room temperature, washed three times with PBST, amplified with streptavidin-HRP for one hour at room temperature, washed three times with PBST, developed with TMB substrate and read at 405 nm using a plate reader.

B1: XTEN_AE864: fusion protein containing XTEN_AE864 fused to the N-terminus of GFP (protein)
chain: MAEPAGSPTSTEEGTPGSGTASSSPGSSTPSGATGSPGASPGTSSTGSPGGASASCAPSTGGGSPAGSPTSTEEGTSESATPESGPGTSTEPSEGSAPGSPAGSPTSTEEGTSTEPSEGSAPGTSTEPSEGSAPGTSESATPESGPGSEPATSGSETPGSEPATSGSETPGSPAGSPTSTEEGTSESATPESGPGTSTEPSEGSAPGTSTEPSEGSAPGSPAGSPTSTEEGTSTEPSEGSAPGTSTEPSEGSAPGTSESATPESGPGTSTEPSEGSAPGTSESATPESGPGSEPATSGSETPGTSTEPSEGSAPGTSTEPSEGSAPGTSESATPESGPGTSESATPESGPGSPAGSPTSTEEGTSESATPESGPGSEPATSGSETPGTSESATPESGPGTSTEPSEGSAPGTSTEPSEGSAPGTSTEPSEGSAPGTSTEPSEGSAPGTSTEPSEGSAPGTSTEPSEGSAPGSPAGSPTSTEEGTSTEPSEGSAPGTSESATPESGPGSEPATSGSETPGTSESATPESGPGSEPATSGSETPGTSESATPESGPGTSTEPSEGSAPGTSESATPESGPGSPAGSPTSTEEGSPAGSPTSTEEGSPAGSPTSTEEGTSESATPESGPGTSTEPSEGSAPGGASASCAPSTGGGSEPATSGSETPGTSESATPESGPGSEPATSGSETPGSPAGSPTSTEEGTSTEPSEGSAPGSEPATSGSETPGSEPATSGSETPGSEPATSGSETPGTSTEPSEGSAPGTSESATPESGPGSEPATSGSETPGTSTEPSEGSAPG
Turning to B1, the degradation in plasma entry in data set [1] is on record as “negligible signs of degradation”. Besides, in data set [2], the “degradation in rat kidney lysate” value is reported as “rapidly degraded”. Also, the degradation in vivo entry in data set [3] is “very few signs of degradation”.

B2: AC385: anti-CD40-XTEN_AE864 scFv binding fusion protein (protein)
chain: QQKPGQAPRLLIYYASHSISGIPARFSGSGSGTDFTLTISSLEPEDFAVYYCQHGHSYPWTFGGGTKVEIKTGSGEGSEGEGGGEGSEGEGSGEGGEGEGSGTQVQLVQSGSELKKPGASVKVSCKASGYAFTTTGMQWVRQAPGQGLEWMGWINTHSGVPKYVEDFKGRFVFSLDTSVSTAYLQISSLKAEDTAVYYCARSGNGNYDLAYFKYWGQGTLVTVSSGGSPAGSPTSTEEGTSESATPESGPGTSTEPSEGSAPGSPAGSPTSTEEGTSTEPSEGSAPGTSTEPSEGSAPGTSESATPESGPGSEPATSGSETPGSEPATSGSETPGSPAGSPT
The term Kd denotes the constant that tells how readily two partners part at equilibrium. Regarding B2, the Kd in the data set with human CD40 is roughly 50 nM.

B3: AC384: anti-CD40-XTEN_AE864 scFv binding fusion protein (protein)
chain: QQKPGQAPRLLIYYASHSISGIPARFSGSGSGTDFTLTISSLEPEDFAVYYCQHGHSYPWTFGGGTKVEIKTGSGEGSEGEGGGEGSEGEGSGEGGEGEGSGTQVQLVQSGSELKKPGASVKVSCKASGYAFTTTGMQWVRQAPGQGLEWMGWINTHSGVPKYVEDFKGRFVFSLDTSVSTAYLQISSLKAEDTAVYYCARSGNGNYDLAYFKYWGQGTLVTVSSGGSPAGSPTSTEEGTSESATPESGPGTSTEPSEGSAPGSPAGSPTSTEEGTSTEPSEGSAPGTSTEPSEGSAPGTSESATPESGPGSEPATSGSETPGSEPATSGSETPGSPAGSP
Take B3: the equilibrium dissociation constant (Kd) in the data set with human CD40 was roughly 50 nM.

B4: AC342: aIL6R-XTEN binding fusion protein construct (protein)
chain: YQQKPGKAPKLLIYYTSRLHSGVPSRFSGSGSGTDFTFTISSLQPEDIATYYCQQGNTLPYTFGQGTKVEIKTGSGEGSEGEGGGEGSEGEGSGEGGEGEGSGSQVQLQESGPGLVRPSQTLSLTCTVSGYSITSDHAWSWVRQPPGRGLEWIGYISYSGITTYNPSLKSRVTMLRDTSKNQFSLRLSSVTAADTAVYYCARSLARTTAMDYWGQGSLVTVSSGSPGSPAGSPTSTEEGTSESATPESGPGTSTEPSEGSAPGSPAGSPTSTEEGTSTEPSEGSAPGTSTEPSEGSAPGTSESATPESGPGSEPATSGSETPGSEPATSGSETPGSPAGSPT
The EC50 is the concentration needed to bring the measured effect to its halfway point. In the data set with human IL6R, B4 returned an EC50 of 5 nM.
